This data set concerns O=C(O)/C=C/c1ccc2c(c1)OCO2. The data set is described as follows: GC-MS quantitation of piperonal, Michaelis-Menten fit. It is filed as biochemical, Piper nigrum. The note with it: 50 µM to 1.6 mM substrate; no ATP, CoA-SH or NAD+; pH of the kinetic assay not printed in main text.

Broadly, the Km is the concentration of substrate that gives half-maximal velocity. As a reminder, the kcat is the maximal rate divided by the concentration of active sites. Take “PnPNS (piperonal synthase; PnMCHL, 3,4-methylenedioxycinnamic acid hydratase-lyase) (Piper nigrum)”: the Km was 317.2 µM and the kcat was 2.7 s⁻¹.
